What all share (assay): SPR (Biacore); KD of H240-Kn120/H240-Hl068/L73-k0 divided by KD of the variant
The target in assay [1] is T1, FcgRIIa R type extracellular domain, C-terminal His tag (human, UniProt P12318 34-217).
T1 construct: extracellular domain; Soluble analyte in Biacore; also called FcγRIIa R; FcγRIIa(R); not shown: His tag at the C terminus
T1 sequence (looked up): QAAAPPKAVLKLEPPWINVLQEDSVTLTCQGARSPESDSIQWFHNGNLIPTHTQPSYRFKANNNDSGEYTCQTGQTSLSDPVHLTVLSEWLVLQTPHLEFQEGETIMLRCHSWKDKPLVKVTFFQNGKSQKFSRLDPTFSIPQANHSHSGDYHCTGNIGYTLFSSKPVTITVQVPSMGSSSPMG
The procedure:
(§1) H240-Kn179/H240-H1089/L73-k0, H240-Kn180/H240-Hl089/L73-k0, H240-Kn192/H240-Hl204/L73-k0, and H240-Kn193/H240-Hl204/L73-k0 were prepared by combining each of H240-Kn192 and H240-Kn193 as an H chain, L73-k0 as the L chain, and H240-Hl089 and H240-Hl204 as the other H chain according to the method described in Reference Example 1. The variants described above were assessed for their binding to FcγR according to the method described in Reference Example 8.
(§2) Analysis of interaction between objective antibody and the FcγR was carried out using Biacore T100 (GE Healthcare), Biacore T200, Biacore A100, and Biacore 4000. HBS-EP+ (GE Healthcare) was used as the running buffer, and the measurement temperature was set to 25° C. Chips produced by immobilizing the antigen peptide by the amine coupling method to a Series S sensor Chip CM5 (GE Healthcare), chips produced by allowing preliminarily biotinylated antigen peptides to interact with and immobilize onto a Series S Sensor Chip SA (certified) (GE Healthcare), chips produced by immobilizing Protein L (ACTIGEN, BioVision) to Series S Sencor Chip CM5 (GE Healthcare), or chips produced by immobilizing Protein A/G (Thermo Scientific) to Series S Sencor Chip CM5 (GE Healthcare) were used. Antibodies of interest were captured onto these chips, and allowed to interact to each FcγR diluted with running buffer. To regenerate and repeatedly use the chip, the antibodies captured onto the chip were washed off by reacting 10 mM glycine-HCl, pH 1.5.

Assay [2] deals with T2, FcgRIIa H type extracellular domain, C-terminal His tag (human, UniProt P12318 34-217).
T2 construct: extracellular domain; Soluble analyte in Biacore; also called FcγRIIa H; FcγRIIa(H); not shown: His tag at the C terminus
T2 sequence (looked up): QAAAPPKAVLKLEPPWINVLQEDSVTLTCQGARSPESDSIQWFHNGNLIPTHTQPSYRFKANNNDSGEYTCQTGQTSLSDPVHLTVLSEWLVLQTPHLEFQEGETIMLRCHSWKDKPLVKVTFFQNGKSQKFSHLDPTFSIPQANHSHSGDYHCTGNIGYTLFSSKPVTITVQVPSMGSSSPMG
The procedure: as §1, §2

For assay [3], the target named is T3, FcgRIIb extracellular domain, C-terminal His tag (human, UniProt P31994 43-217).
T3 construct: extracellular domain; Soluble analyte in Biacore; also called FcγRIIb; not shown: His tag at the C terminus
T3 sequence (looked up): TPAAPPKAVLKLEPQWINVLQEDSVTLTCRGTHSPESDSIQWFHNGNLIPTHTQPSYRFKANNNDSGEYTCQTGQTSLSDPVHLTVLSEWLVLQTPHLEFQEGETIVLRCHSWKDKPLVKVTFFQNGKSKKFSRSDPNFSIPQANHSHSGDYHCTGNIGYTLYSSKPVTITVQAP
The procedure: as §1, §2

For assay [4], the target named is T4, FcgRIIIa F type extracellular domain, C-terminal His tag (human, UniProt P08637 17-208).
T4 construct: extracellular domain; Soluble analyte in Biacore; also called FcγRIIIa F; not shown: His tag at the C terminus
The procedure:
as §1, §2

The target of assay [5] is T5, FcgRIIIa V type extracellular domain, C-terminal His tag (human, UniProt P08637 17-208).
T5 construct: extracellular domain; Soluble analyte in Biacore; also called FcγRIIIa V; not shown: His tag at the C terminus
The procedure:
as §1, §2

T5 sequence (P08637 17-208 F176V): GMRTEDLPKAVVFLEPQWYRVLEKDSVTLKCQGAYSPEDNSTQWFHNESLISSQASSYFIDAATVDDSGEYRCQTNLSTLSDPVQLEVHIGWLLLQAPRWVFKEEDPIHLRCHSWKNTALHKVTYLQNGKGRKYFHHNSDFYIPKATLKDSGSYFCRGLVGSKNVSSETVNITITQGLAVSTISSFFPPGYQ
T4 sequence (P08637 17-208): as the sequence (P08637 17-208 F176V) above, with V160F counted along it

B1: H240-Kn179/H240-Hl089/L73-k0 (antibody, human IgG1, kappa)
heavy 1: QDQLVQSGAEVKKPGASVKVSCKASGFNIKDTYIQWVRQAPGQGLEWMGRIDPLRKQTKYREKFEGRVTITADTSTNTAYMELSSLRSEDTAVYYCVRSGREFDYWGQGTLVTVSSASTKGPSVFPLAPSSKSTSGGTAALGCLVKDYFPEPVTVSWNSGALTSGVHTFPAVLQSSGLYSLSSVVTVPSSSLGTQTYICNVNHKPSNTKVDKKVEPKSCDKTHTCPPCPAPEYYWGPMVFLFPPKPKDTLMISRTPEVTCVVVDVSDEDPEVKFNWYVDGVEVHNAKTKPREKQYNATYRVVSVLTVLHQDWLNGKEYKCKVSNKDLPAPIEKTISKAKGQPREPQVCTLPPSRDELTKNQVSLWCLVKGFYPSDIAVEWESNGQPENNYKTTPPVLDSDGSFFLYSKLTVDKSRWQQGNVFSCSVMHEALHNHYTQKSLSLSP
heavy 2: QDQLVQSGAEVKKPGASVKVSCKASGFNIKDTYIQWVRQAPGQGLEWMGRIDPLRKQTKYREKFEGRVTITADTSTNTAYMELSSLRSEDTAVYYCVRSGREFDYWGQGTLVTVSSASTKGPSVFPLAPSSKSTSGGTAALGCLVKDYFPEPVTVSWNSGALTSGVHTFPAVLQSSGLYSLSSVVTVPSSSLGTQTYICNVNHKPSNTKVDKKVEPKSCDKTHTCPPCPAPELLTGPSVFLFPPKPKDTLMISRTPEVTCVVVDVSHEEPEVKFNWYVDGVEVHNAKTKPREEQYNSTYRVVSVLTVLHQDWLNGKEYKCKVSNDALPKPIEETISKAKGQPREPQVYTLPPSRCELTKNQVSLSCAVKGFYPSDIAVEWESNGQPENNYKTTPPVLDSDGSFFLVSKLTVDKSRWQQGNVFSCSVMHEALHNHYTQKSLSLSP
light: DIQMTQSPSSLSASVGDRVTITCRASQDIHKYIAWYQQKPGQAPRLLIQYTSTLQPGVPSRFSGSGSGTDYTFTISSLQPEDIATYYCLQYEQLRTFGGGTKVEIKRTVAAPSVFIFPPSDEQLKSGTASVVCLLNNFYPREAKVQWKVDNALQSGNSQESVTEQDSKDSTYSLSSTLTLSKADYEKHKVYACEVTHQGLSSPVTKSFNRGEC
notes: Combination of E294R in the Kn chain and G236T in the Hl chain; also called H240-Kn179/H240-HI089/L73-k0
Take B1: the “relative KD” value in assay [1] was found to be 1.1; in assay [2] it was 0.9; in assay [3], 0.4; in assay [4], 0.1; in assay [5], 0.

B2: H240-Kn180/H240-Hl089/L73-k0 (antibody, human IgG1, kappa)
heavy 1: QDQLVQSGAEVKKPGASVKVSCKASGFNIKDTYIQWVRQAPGQGLEWMGRIDPLRKQTKYREKFEGRVTITADTSTNTAYMELSSLRSEDTAVYYCVRSGREFDYWGQGTLVTVSSASTKGPSVFPLAPSSKSTSGGTAALGCLVKDYFPEPVTVSWNSGALTSGVHTFPAVLQSSGLYSLSSVVTVPSSSLGTQTYICNVNHKPSNTKVDKKVEPKSCDKTHTCPPCPAPEYYWGPMVFLFPPKPKDTLMISRTPEVTCVVVDVSDEDPEVKFNWYVDGVEVHNAKTKPRERQYNATYRVVSVLTVLHQDWLNGKEYKCKVSNKDLPAPIEKTISKAKGQPREPQVCTLPPSRDELTKNQVSLWCLVKGFYPSDIAVEWESNGQPENNYKTTPPVLDSDGSFFLYSKLTVDKSRWQQGNVFSCSVMHEALHNHYTQKSLSLSP
heavy 2: QDQLVQSGAEVKKPGASVKVSCKASGFNIKDTYIQWVRQAPGQGLEWMGRIDPLRKQTKYREKFEGRVTITADTSTNTAYMELSSLRSEDTAVYYCVRSGREFDYWGQGTLVTVSSASTKGPSVFPLAPSSKSTSGGTAALGCLVKDYFPEPVTVSWNSGALTSGVHTFPAVLQSSGLYSLSSVVTVPSSSLGTQTYICNVNHKPSNTKVDKKVEPKSCDKTHTCPPCPAPELLTGPSVFLFPPKPKDTLMISRTPEVTCVVVDVSHEEPEVKFNWYVDGVEVHNAKTKPREEQYNSTYRVVSVLTVLHQDWLNGKEYKCKVSNDALPKPIEETISKAKGQPREPQVYTLPPSRCELTKNQVSLSCAVKGFYPSDIAVEWESNGQPENNYKTTPPVLDSDGSFFLVSKLTVDKSRWQQGNVFSCSVMHEALHNHYTQKSLSLSP
light: DIQMTQSPSSLSASVGDRVTITCRASQDIHKYIAWYQQKPGQAPRLLIQYTSTLQPGVPSRFSGSGSGTDYTFTISSLQPEDIATYYCLQYEQLRTFGGGTKVEIKRTVAAPSVFIFPPSDEQLKSGTASVVCLLNNFYPREAKVQWKVDNALQSGNSQESVTEQDSKDSTYSLSSTLTLSKADYEKHKVYACEVTHQGLSSPVTKSFNRGEC
notes: Combination of E294K in the Kn chain and G236T in the Hl chain; also called H240-Kn180/H240-HI089/L73-k0
For the molecule B2, the “relative KD” value in assay [1] worked out at 1.3; in assay [2], 1.1; in assay [3], 0.4; in assay [4], 0.1; in assay [5] it was 0.
